Three substances from article PMC8605023 can be followed below.

As usually defined, the IC50 is the point on the concentration scale where inhibition reaches its midpoint. Higher therefore signals weaker potency in that assay. By Ki is commonly meant a measure of affinity in units of concentration, obtained from inhibition or displacement. The low end stands for a stronger hold on the target, the high end for a looser hold on the target.

Experiment [1] has as its target MAP1LC3C ATG8 domain (human) (UniProt Q9BXW4).
For a further experiment, the target named is USP7 (human) (UniProt Q93009).
Sequence of USP7 (human) (Q93009 whole entry, the tested form may be a part): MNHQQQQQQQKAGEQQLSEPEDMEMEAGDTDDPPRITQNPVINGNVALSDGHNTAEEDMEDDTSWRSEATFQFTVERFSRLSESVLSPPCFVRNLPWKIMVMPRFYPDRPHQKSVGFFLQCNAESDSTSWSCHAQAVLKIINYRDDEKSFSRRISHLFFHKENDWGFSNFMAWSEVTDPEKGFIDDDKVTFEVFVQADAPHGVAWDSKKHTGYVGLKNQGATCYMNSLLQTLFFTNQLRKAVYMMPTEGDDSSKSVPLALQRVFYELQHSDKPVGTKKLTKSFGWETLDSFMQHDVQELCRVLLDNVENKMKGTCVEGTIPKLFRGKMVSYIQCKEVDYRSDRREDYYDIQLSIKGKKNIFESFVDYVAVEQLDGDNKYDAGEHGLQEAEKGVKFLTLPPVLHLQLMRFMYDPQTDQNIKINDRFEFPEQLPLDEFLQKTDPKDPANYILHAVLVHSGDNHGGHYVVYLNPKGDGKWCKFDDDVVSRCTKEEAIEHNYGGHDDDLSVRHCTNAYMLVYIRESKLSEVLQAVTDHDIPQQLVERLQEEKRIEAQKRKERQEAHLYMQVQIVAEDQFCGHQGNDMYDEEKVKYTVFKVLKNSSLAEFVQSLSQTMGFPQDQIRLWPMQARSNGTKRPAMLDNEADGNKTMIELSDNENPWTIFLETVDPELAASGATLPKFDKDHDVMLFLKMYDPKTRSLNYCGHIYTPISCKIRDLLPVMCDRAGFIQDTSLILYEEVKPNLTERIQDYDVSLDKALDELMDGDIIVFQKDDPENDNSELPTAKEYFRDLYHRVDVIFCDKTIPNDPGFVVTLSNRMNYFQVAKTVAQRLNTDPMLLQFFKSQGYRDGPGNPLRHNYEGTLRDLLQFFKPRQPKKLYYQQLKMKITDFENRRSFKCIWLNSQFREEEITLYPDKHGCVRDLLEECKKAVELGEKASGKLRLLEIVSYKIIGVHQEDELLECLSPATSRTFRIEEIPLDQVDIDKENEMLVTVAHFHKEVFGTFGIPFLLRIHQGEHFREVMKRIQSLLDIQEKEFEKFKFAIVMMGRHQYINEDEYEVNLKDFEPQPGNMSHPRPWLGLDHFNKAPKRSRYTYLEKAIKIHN
Experiment [2] addresses G3BP2 NTF2 domain (human) (UniProt Q9UN86).
Experiment [3] deals with G3BP1 NTF2 domain (human) (UniProt Q13283).
Sequence of G3BP1 NTF2 domain (human) (Q13283 11-133): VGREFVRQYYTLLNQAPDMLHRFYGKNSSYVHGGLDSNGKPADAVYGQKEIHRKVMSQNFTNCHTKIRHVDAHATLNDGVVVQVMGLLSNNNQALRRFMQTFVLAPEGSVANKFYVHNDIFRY

Sequence of MAP1LC3C ATG8 domain (human) (Q9BXW4 1-126): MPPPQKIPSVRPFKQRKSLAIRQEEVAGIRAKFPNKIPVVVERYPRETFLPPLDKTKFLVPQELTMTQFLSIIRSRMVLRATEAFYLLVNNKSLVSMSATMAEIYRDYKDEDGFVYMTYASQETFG
Sequence of G3BP2 NTF2 domain (human) (Q9UN86 11-133): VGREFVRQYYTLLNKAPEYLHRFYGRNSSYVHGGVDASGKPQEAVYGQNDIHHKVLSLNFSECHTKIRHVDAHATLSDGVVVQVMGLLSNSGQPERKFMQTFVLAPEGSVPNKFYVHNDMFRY

With NSP3 peptide 2019-2034 (Sars-CoV2), in experiment [1], the IC50 was found to be 1530 µM and the Ki was 210 µM. In the experiment with USP7 (human), this substance came in with an IC50 of 270 µM and a Ki of 37 µM.

On to N peptide 12-26 (Sars-CoV2), for which the IC50 in experiment [2] came to 10 µM; in experiment [3], 17 µM.

For the substance N peptide 405-419 (Sars-CoV2), in the experiment with USP7 (human), the IC50 stood at 1050 µM and the Ki was found to be 150 µM.
